koff data for one molecule are collected here from patent publication EP2778173A1 (dated 2014).

The target of this test is T1, recombinant EF produced in our laboratory (Bacillus anthracis, UniProt P40136 34-800).
T1 sequence: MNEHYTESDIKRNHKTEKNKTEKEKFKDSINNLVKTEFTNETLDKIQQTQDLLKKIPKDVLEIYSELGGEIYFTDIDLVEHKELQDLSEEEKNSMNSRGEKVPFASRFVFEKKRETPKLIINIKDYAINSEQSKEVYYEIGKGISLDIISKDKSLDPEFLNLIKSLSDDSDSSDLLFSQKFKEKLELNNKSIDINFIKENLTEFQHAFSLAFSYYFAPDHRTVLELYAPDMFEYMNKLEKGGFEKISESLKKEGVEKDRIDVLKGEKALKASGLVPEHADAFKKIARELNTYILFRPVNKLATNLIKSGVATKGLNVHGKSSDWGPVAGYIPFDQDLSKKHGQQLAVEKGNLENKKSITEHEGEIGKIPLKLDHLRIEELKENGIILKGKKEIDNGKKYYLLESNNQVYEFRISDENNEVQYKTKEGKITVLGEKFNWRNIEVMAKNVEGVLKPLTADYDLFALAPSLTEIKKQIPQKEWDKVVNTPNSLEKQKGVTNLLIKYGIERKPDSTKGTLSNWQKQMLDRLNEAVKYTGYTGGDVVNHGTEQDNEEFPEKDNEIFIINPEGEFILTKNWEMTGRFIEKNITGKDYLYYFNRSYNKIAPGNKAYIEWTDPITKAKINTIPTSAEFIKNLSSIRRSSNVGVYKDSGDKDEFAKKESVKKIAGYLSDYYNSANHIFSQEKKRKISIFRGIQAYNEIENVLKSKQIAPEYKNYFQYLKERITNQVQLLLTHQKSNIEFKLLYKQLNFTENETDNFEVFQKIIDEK
Kind of test: SPR (Biacore X), scFv 2LF on CM5 chip, Native EF in solution; Table 2. On the technique in general: In SPR one partner is held on a chip, and binding of the other changes the refractive index at the surface.

B1: scFv 2LF (scFv, V domains shown)
VH: QVQLVESGGGVVQPGRSLRLSCAASGFAFDSTAMHWVRQAPGKGLEWVAVISTGGSTYYADSVKGRFTISRDNSNNTLYLQMNSLRAEDTAVYYCAKAVRGYIGSRGPLDVWGQGTMVTVSS
VL: DIQMTQSPSSVSASVGDRVTITCRASQGISSWLAWYQQKPGKAPKLLIYKASSLQSGVPSRFSGSGSGTDFTLTISSLQPEDFATYYCQQYSTSPITFGGGTKVEIK
The koff is the rate constant with which the complex falls apart. Turning to B1, the koff came to 0.00051 s⁻¹.
